Experimental data from patent publication US20250101117A1 (Genentech, published 2025).

Target: T1, oncostatin M receptor-beta (OSMRβ) (human, UniProt Q99650 28-979)
T1 sequence (looked up): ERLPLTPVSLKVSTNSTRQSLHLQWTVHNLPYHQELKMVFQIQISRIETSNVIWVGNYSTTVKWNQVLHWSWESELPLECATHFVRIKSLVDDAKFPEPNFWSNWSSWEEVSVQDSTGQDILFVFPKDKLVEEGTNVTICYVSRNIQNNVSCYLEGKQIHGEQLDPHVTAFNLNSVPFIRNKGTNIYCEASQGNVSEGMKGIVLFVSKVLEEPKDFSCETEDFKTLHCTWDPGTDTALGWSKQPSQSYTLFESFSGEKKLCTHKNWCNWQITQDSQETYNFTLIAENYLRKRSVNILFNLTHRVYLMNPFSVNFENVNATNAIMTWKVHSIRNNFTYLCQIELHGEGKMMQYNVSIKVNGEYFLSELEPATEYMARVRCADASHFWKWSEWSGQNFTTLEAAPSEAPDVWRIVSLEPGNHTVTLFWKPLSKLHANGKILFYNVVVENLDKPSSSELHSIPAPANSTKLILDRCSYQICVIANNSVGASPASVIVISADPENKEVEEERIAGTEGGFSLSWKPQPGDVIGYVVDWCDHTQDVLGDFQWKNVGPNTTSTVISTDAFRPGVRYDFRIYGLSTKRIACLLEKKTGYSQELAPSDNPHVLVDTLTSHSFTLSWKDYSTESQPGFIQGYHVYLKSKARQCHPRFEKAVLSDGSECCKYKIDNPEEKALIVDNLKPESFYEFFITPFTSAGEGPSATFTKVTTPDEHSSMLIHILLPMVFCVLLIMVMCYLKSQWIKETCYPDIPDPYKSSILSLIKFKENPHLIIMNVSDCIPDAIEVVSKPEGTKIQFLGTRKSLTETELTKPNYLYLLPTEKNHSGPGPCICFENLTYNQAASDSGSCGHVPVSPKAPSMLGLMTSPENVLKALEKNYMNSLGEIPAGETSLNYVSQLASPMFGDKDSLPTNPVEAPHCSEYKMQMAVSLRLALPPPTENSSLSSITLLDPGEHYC
Test: cell-based or functional assay

Mean of IC50, inhibition of OSM-induced pSTAT3; IBD-derived intestinal fibroblasts, [OSM] 1 ng/mL (standard deviation 0.05): 0.14 nM
Mean of IC50, inhibition of OSM-induced pSTAT3; IBD-derived intestinal fibroblasts, [OSM] 10 ng/mL (standard deviation 0.36): 1.15 nM
Mean of IC50, inhibition of OSM-induced pSTAT3; normal keratinocytes, [OSM] 10 ng/mL (standard deviation 0.18): 0.36 nM
B1: Vixarelimab (antibody, human IgG4 S228P, lambda, N297Q, V domains shown)
VH: QVQLVQSGAEVKKPGASVKVSCKASGYTFTSYEINWVRQATGQGLEWMGWMNPNSGYTGYAQKFQGRVTMTRDTSISTAYMEMSSLRSEDTAVYYCARDIVAANTDYYFYYGMDVWGQGTTVTVSS
VL: QSVLTQPPSASGTPGQRVTISCSGSNSNIGSNTVNWYHQLPGTAPKLLIYNINKRPSGVPDRFSGSKSGSSASLAISGLQSEDEADYYCSTWDDSLDGVVFGGGTKLTVLG
